Patent publication US20040073001A1 (Kyowa Kirin, published 2004)

Assays:
[1] = target: T1, GAL4 BD fusion of the N-terminal half of the β-catenin arm (residues 141 to 390 of mouse β-catenin, armadillo … (yeast; mouse, UniProt P04386 1-147; Q02248 141-390); assay: yeast two-hybrid, β-galactosidase activity
T1 construct: Two-hybrid bait; also called N-terminal half (armadillo repeats 1-6) of the β-catenin arm
Text: (§1) The respective bait plasmids were cotransfected with the B9L cDNA fragment-expressing clone obtained by the two-hybrid system in Example 1 into yeast HF7C strain, and the binding between the B9L protein and the respective β-catenin partial fragments were examined by the existence of β-galactosidase activity in the transformants. […] Thus, it was considered that the B9L protein binds to the N-terminal region of β-catenin arm (armadillo repeats 1-6).
(§2) In order to further examine which region of the B9L protein binds to the β-catenin arm, two-hybrid system was performed as follows. […] Each plasmid was cotransfected with the β-catenin arm bait plasmid prepared in Example 1 into yeast HF7C strain, and the binding of each B9L protein partial fragment and β-catenin arm was examined based on the presence or absence of β-galactosidase activity in the transformants. […] Thus, the B9L protein was indicated to bind to the β-catenin arm at the region of residues 292-439 in the amino acid sequence represented by SEQ ID NO: 2.

[2] = target: T2, GAL4 BD fusion of the C-terminal half of the β-catenin arm (residues 391 to 664 of mouse β-catenin, armadillo … (yeast; mouse, UniProt P04386 1-147; Q02248 391-664); assay: yeast two-hybrid, β-galactosidase activity
T2 construct: Two-hybrid bait; also called C-terminal half of the β-catenin arm (armadillo repeats 7-12)
Text: as §1, §2

[3] = target: T3, GAL4 BD fusion of almost the entire β-catenin arm (residues 141 to 664 of mouse β-catenin) (yeast; mouse, UniProt P04386 1-147; Q02248 141-664); assay: yeast two-hybrid, β-galactosidase activity
T3 construct: Two-hybrid bait; also called almost entire region
Text: as §1, §2

[4] = target: T4, GAL4-β-catenin fusion protein (GAL4 BD fused with mouse β-catenin armadillo domain, residues 128 to 683) (yeast; mouse, UniProt P04386 1-147; Q02248 128-683); assay: yeast two-hybrid screening, HIS3 and β-galactosidase reporters
T4 construct: Bait of the yeast two-hybrid system; also called mβ-catenin arm; β-catenin arm bait plasmid
Experimental: Screening was carried out with […] mouse fetal (Swiss Webster/NIH mouse; 17-day embryo) cDNA library, which is a library to be used for the two-hybrid system and provided by Clontech. This cDNA library contains vector pGAD10 (Clontech) with cDNA insert and, as a selection marker, LEU2 gene involved in leucine biosynthesis in yeast, and can express fusion proteins of GAL4 AD and cDNA-encoding proteins through ADH1 promoter. Specific method for the screening was conducted according to the manual attached to the library from Clontech as follows.
Specifically, both mouse fetal cDNA library for the two-hybrid system and plasmid GAL4-β-catenin prepared in (1) were introduced in yeast Saccharomyces cerevisiae HF7C strain (Clontech). HF7C strain is a yeast strain that is tryptophan-, leucine-, and histidine-auxotrophic. The strain has HIS3 gene on the chromosome wherein the gene is involved in histidine biosynthesis and has been ligated downstream of GAL1 promoter to which GAL4 BD can bind, as well as E. coli-derived β-galactosidase gene lacZ ligated downstream of a nucleotide sequence to which GAL4 BD can bind as reporter genes (Gene 212: 197 (1998)). A transformant containing both plasmid GAL4-β-catenin and cDNA clone of a protein that binds to mβ-catenin arm and expresses the respective fusion proteins, is non-auxotrophic for histidine and is positive in β-galactosidase activity. […]

B1: GAL4 AD fusion of the B9L cDNA fragment clone obtained by the two-hybrid system (B9L protein residues 245 to 564, SEQ ID NO: 4) (other, not shown: large carriers)
chain: LANTAAEAVLQGRAESILAYHQQNVPRAKLDQAPKVPPTPEPLPLNTPSAGTPQSQPPPLPPPPPAPGSAPPALPPEGPPEDTSQDLAPNSVGAASTGGGTGGTHPNTPTAATANNPLPPGGDPGSAPGSALLGEATPTGNGQRNLVGSEGLSKEQLEHRERSLQTLRDIERLLLRSGETEPFLKGPPGGAGEGGPPAQAPSAAQPPPSAPPGGLKKYEEPLQSMISQTQSLGGPPLEHEVPGHPQGGDMGQQMNMMMQRLGQDSLTPEQVAWRKLQEEYYEEKRRKEEQIGLHGGRPLQDMVGMGGMMGRGPPPPYHSK
notes: Expressed in yeast HF7C as prey of the two-hybrid system; also called B9L cDNA fragment-expressing clone; bc19 like protein fragment
Which results are given for B1?
binding result [1]: binds; binding result [2]: no binding; binding result [3]: binds; binding result [4]: binds
